This note sets out measurements from US20200262920A1 (AMPHIVENA THERAPEUTICS, published 2020).

Assay [1] deals with T1, human CD33 (human, UniProt P20138 18-364). Nature of the assay: cell-based or functional assay.
For assay [2], the target named is T2, human CD3 (human, UniProt P07766 23-207; P09693 23-182; P04234 22-171; P20963 22-164). Nature of the assay: cell-based or functional assay.
Assay [3] addresses T1, human CD33. In words: flow cytometry, HL-60 cells.
For assay [4], the target named is T2, human CD3. In words: flow cytometry, human T-cells. A general note: In flow cytometry, cells or beads pass a laser one at a time.
In assay [5] the target is T1, human CD33. In words: flow cytometry titration, KG-1 cells. Here is the method:
(§1) Cells were incubated with 100 μL of serial dilutions of CD33/CD3 2×2 T-cell engagers. After washing three times with FACS buffer the cells were incubated with 0.1 mL of 10 μg/mL mouse monoclonal anti-His antibody in the same buffer for 45 min on ice. After a second washing cycle, the cells were incubated with 0.1 mL of 15 μg/mL FITC-conjugated goat anti-mouse IgG antibodies under the same conditions as before. As a control, cells were incubated with the anti-His IgG followed by the FITC-conjugated goat anti-mouse IgG antibodies without anti-CD33 2×2 T-cell engagers. The cells were then washed again and resuspended in 0.2 mL of FACS buffer containing 2 μg/mL propidium iodide (PI) in order to exclude dead cells. The fluorescence of 1×10⁴ living cells was measured using a Beckman-Coulter FC500 MPL flow cytometer using the MXP software (Beckman-Coulter, Krefeld, Germany) or a Millipore Guava EasyCyte flow cytometer using the Incyte software (Merck Millipore, Schwalbach, Germany). Mean fluorescence intensities of the cell samples were calculated using CXP software (Beckman-Coulter, Krefeld, Germany) or Incyte software (Merck Millipore, Schwalbach, Germany). After subtracting the fluorescence intensity values of the cells stained with the secondary and tertiary reagents alone the values were used for calculation of the KD values with the equation for one-site binding (hyperbola) of the GraphPad Prism (version 6.00 for Windows, GraphPad Software, La Jolla Calif. USA). […]

Assay [6] deals with T1, human CD33. Nature of the assay: flow cytometry titration, HL-60 cells. Here is the method:
as §1

Assay [7] has as its target T1, human CD33. Nature of the assay: flow cytometry titration, U-937 cells. Here is the method: as §1
Assay [8] deals with T2, human CD3. In words: flow cytometry titration, T cells (human CD3+).

T2 sequence (P07766 23-207, chain 1 of 4): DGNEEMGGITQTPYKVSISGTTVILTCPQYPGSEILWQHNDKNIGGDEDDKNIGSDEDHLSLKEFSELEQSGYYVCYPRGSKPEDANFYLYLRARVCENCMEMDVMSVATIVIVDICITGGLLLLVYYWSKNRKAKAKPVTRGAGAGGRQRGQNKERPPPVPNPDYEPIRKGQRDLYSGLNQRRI
T2 sequence (P09693 23-182, chain 2 of 4): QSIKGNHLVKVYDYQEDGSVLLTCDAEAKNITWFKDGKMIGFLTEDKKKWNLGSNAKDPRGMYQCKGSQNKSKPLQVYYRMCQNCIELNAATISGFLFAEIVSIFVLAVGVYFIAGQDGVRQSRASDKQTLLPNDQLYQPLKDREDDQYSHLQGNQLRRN
T2 sequence (P04234 22-171, chain 3 of 4): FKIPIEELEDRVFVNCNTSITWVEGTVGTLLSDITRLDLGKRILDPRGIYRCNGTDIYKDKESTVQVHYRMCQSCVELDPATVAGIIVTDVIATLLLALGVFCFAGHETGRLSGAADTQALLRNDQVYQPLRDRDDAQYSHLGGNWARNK
T2 sequence (P20963 22-164, chain 4 of 4): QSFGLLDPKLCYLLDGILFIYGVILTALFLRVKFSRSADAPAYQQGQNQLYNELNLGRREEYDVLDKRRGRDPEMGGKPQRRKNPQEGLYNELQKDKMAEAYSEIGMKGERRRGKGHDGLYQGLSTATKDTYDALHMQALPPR
T1 sequence (P20138 18-364): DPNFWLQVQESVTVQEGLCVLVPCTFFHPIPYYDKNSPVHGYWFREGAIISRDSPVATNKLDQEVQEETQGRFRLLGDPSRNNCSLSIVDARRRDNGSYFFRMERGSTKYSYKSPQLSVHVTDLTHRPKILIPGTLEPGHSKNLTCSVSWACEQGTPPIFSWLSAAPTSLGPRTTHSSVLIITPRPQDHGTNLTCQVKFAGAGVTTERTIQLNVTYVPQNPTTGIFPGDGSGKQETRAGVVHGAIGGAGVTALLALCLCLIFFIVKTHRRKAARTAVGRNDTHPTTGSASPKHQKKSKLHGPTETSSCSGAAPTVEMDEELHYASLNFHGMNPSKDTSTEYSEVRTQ

B1: CD33/CD3 2×2 T-cell engager 04 (bispecific antibody)
chain: DIQMTQSPSSLSASVGDRVTITCRSSTGAVTTSNYANWVQQKPGKAPKGLIGGTNKRAPGVPARFSGSGSGTDFTLTISSLQPEDFATYYCALWYSNLWVFGQGTKVEIKGGSGGSQVQLVQSGAEVKKPGASVKVSCKASGYTFTSYDINWVRQAPGQGLEWMGWMNPNSGNTGFAQKFQGRVTMTRDTSTSTVYMELSSLRSEDTAVYYCARDRANTDYSLGMDVWGQGTLVTVSSGGSGQSVLTQPPSASGTPGQRVTISCSGSRSNIGSNTVNWYQQLPGTAPKLLIYGNNQRPSGVPDRFSGSKSGTSASLAISGLQSEDEADYYCATWDDSLIGWVFGGGTKLTVLGGSGGSEVQLVESGGGLVQPGGSLRLSCAASGFTFSTYAMNWVRQAPGKGLEWVGRIRSKYNNYATYYADSVKDRFTISRDDSKNSLYLQMNSLKTEDTAVYYCARHGNFGNSYVSWFAYWGQGTLVTVSSAAAGSHHHHHH
notes: Non-covalent homodimer; also called 2×2 T-cell engager 4
On to B1, for which the “EC50 on HL-60 (cytotoxicity)” value with human CD33 [1] is 0.0018 nM. Moreover, the “CD25 Induction EC50” value with human CD3 [2] came out at 0.094 nM. In the assay with human CD3 [2], the “CD69 Induction EC50” value was found to be 0.062 nM. In the assay with human CD3 [2], the “T cell Proliferation in PBMC EC50” value came out at 0.044 nM. For the same molecule, the Kd (as a rule, the constant that tells how readily two partners part at equilibrium) with human CD33 [3] is 0.5 nM; in the assay with human CD3 [4], 79.3 nM; with human CD33 [5], 0.5 nM; with human CD33 [6], 0.5 nM; in the assay with human CD33 [7] it was 1.7 nM; in the assay with human CD3 [8], 79.3 nM.

B2: CD33/CD3 2×2 T-cell engager 11 (bispecific antibody)
chain: DIQMTQSPSSLSASVGDRVTITCRSSTGAVTTSNYANWVQQKPGKAPKGLIGGTNKRAPGVPSRFSGSLIGDKATLTISSLQPEDFATYYCALWYSNLWVFGQGTKVEIKGGSGGSQVQLVQSGAEVKKPGASVKVSCKASGYTFTSYDINWVRQAPGQGLEWMGWMNPNSGNTGFAQKFQGRVTMTRDTSTSTVYMELSSLRSEDTAVYYCARDRANTDYSLGMDVWGQGTLVTVSSGGSGQSVLTQPPSASGTPGQRVTISCSGSRSNIGSNTVNWYQQLPGTAPKLLIYGNNQRPSGVPDRFSGSKSGTSASLAISGLQSEDEADYYCATWDDSLIGWVFGGGTKLTVLGGSGGSEVQLVESGGGLVQPGGSLRLSCAASGFTFSTYAMNWVRQAPGKGLEWVGRIRSKYNNYATYYADSVKDRFTISRDDSKNSLYLQMNSLKTEDTAVYYCARHGNFGNSYVSWFAYWGQGTLVTVSSAAAGSHHHHHH
notes: Non-covalent homodimer
Take B2: the “EC50 on HL-60 (cytotoxicity)” value in the assay with human CD33 [1] worked out at 0.0059 nM. In addition, the “CD25 Induction EC50” value with human CD3 [2] came out at 0.011 nM. Also, in the assay with human CD3 [2], the “CD69 Induction EC50” value came to 0.005 nM. Further, the “T cell Proliferation in PBMC EC50” value in the assay with human CD3 [2] came out at 0.006 nM. Further, the dissociation constant (Kd) was determined as 0.3 nM with human CD33 [3]; 2.6 nM with human CD3 [4]; 0.5 nM with human CD33 [5]; 0.3 nM with human CD33 [6]; 0.6 nM in the assay with human CD33 [7]; 2.6 nM with human CD3 [8].

B3: CD33/CD3 2×2 T-cell engager 09 (bispecific antibody)
chain: DIQMTQSPSSLSASVGDRVTITCRSSTGAVTTSNYANWVQQKPGKAPKGLIGGTNKRAPGVPSRFSGSLIGDKATLTISSLQPEDFATYYCALWYSNLWVFGQGTKVEIKGGSGGSQVQLVQSGAEVKKPGASVKVSCKASGYTFTSYDINWVRQAPGQGLEWMGWMNPNSGNTGFAQKFQGRVTMTRDTSTSTVYMELSSLRSEDTAVYYCARDRANTDFSYGMDVWGQGTLVTVSSGGSGQSVLTQPPSASGTPGQRVTISCSGSRSNIGSNTVNWYQQLPGTAPKLLIYGNNQRPSGVPDRFSGSKSGTSASLAISGLQSEDEADYYCATWDDSLIGWVFGGGTKLTVLGGSGGSEVQLVESGGGLVQPGGSLRLSCAASGFTFSTYAMNWVRQAPGKGLEWVGRIRSKYNNYATYYADSVKDRFTISRDDSKNSLYLQMNSLKTEDTAVYYCARHGNFGNSYVSWFAYWGQGTLVTVSSAAAGSHHHHHH
notes: Non-covalent homodimer; also called 2×2 T-cell engager 9
B3: the “EC50 on HL-60 (cytotoxicity)” value in the assay with human CD33 [1] came out at 0.0068 nM. For the same molecule, in the assay with human CD3 [2], the “CD25 Induction EC50” value worked out at 0.011 nM. For the same molecule, in the assay with human CD3 [2], the “CD69 Induction EC50” value was 0.007 nM. Also, in the assay with human CD3 [2], the “T cell Proliferation in PBMC EC50” value is 0.009 nM. In addition, the dissociation constant Kd in the assay with human CD33 [3] amounted to 0.5 nM; with human CD3 [4] it was 2.4 nM; with human CD33 [5] it was 0.3 nM; with human CD33 [6], 0.5 nM; in the assay with human CD33 [7] it was 2.2 nM; with human CD3 [8], 2.4 nM.
